For the data set, the target named is T1, ETS1 x2 (Homo sapiens, UniProt P14921).
T1 sequence: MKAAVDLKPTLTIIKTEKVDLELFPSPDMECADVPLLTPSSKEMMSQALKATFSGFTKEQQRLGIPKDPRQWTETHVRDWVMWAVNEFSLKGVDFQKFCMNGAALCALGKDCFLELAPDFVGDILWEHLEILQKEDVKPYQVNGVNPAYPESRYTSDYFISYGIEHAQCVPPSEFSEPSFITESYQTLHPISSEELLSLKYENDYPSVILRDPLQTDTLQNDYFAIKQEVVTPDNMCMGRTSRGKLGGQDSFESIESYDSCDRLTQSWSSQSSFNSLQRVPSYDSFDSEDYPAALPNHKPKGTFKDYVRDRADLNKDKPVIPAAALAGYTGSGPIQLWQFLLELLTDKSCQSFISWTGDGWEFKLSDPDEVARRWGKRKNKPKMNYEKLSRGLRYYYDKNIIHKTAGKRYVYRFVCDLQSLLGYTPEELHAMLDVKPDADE
Kind of data set: gcPBM; 10 nM ETS1. The conditions noted are these: tags: N-terminal GST (pDEST15), kept (PMC6008103); chain copies: 2; label: surface-attached array probe.

The values that follow come from article PMC10681739, “High-throughput data and modeling reveal insights into the mechanisms of cooperative DNA-binding by transcription factor proteins”.

B1: Table S4 A row 1679 (dsDNA)
DNA 1: AGTGTTCACTTCCTGCCCTCCCATTTCCTGAAGGTC
DNA 2: GACCTTCAGGAAATGGGAGGGCAGGAAGTGAACACT
Regarding B1, the binding signal is 35600 PBM fluorescence, median of replicate spots.

B2: Table S4 A row 2168 (dsDNA)
DNA 1: CCGGCCTTCCACTTCCGGCGCGGAAGTTGGCGTCAC
DNA 2: GTGACGCCAACTTCCGCGCCGGAAGTGGAAGGCCGG
On to B2, for which the binding signal was 44800 PBM fluorescence, median of replicate spots.

B3: Table S4 A row 2224 (dsDNA)
DNA 1: GCACTTCCGCCAGAAGCCGGGTGTGTCCTTCCGGGC
DNA 2: GCCCGGAAGGACACACCCGGCTTCTGGCGGAAGTGC
On to B3, for which the binding signal is 49200 PBM fluorescence, median of replicate spots.

B4: Table S4 A row 2202 (dsDNA)
DNA 1: AGGGCGATTTCCGCTTTGTCGCGTTTCCTCAAGGCT
DNA 2: AGCCTTGAGGAAACGCGACAAAGCGGAAATCGCCCT
For B4, the binding signal is 37800 PBM fluorescence, median of replicate spots.

B5: Table S4 A row 743 (dsDNA)
DNA 1: CCCCACTTCCTGTTGACACAATAGGCAGGATATTAA
DNA 2: TTAATATCCTGCCTATTGTGTCAACAGGAAGTGGGG
In the case of B5, the binding signal was 67800 PBM fluorescence, median of replicate spots.

B6: Table S4 A row 305 (dsDNA)
DNA 1: GCCGCTTCCTGTTCAGAGGACAGACAGCTTCCTGAC
DNA 2: GTCAGGAAGCTGTCTGTCCTCTGAACAGGAAGCGGC
B6: the binding signal is 61600 PBM fluorescence, median of replicate spots.

B7: Table S4 A row 2460 (dsDNA)
DNA 1: GGCTGGAAGGCACTTCCGGCGGAAGTTAGAGCTGGG
DNA 2: CCCAGCTCTAACTTCCGCCGGAAGTGCCTTCCAGCC
Take B7: the binding signal is 42900 PBM fluorescence, median of replicate spots.

B8: Table S4 A row 2195 (dsDNA)
DNA 1: TGAAGAAGCACCGGAAATGCTTCCGATCGCTTCATA
DNA 2: TATGAAGCGATCGGAAGCATTTCCGGTGCTTCTTCA
In the case of B8, the binding signal is 40400 PBM fluorescence, median of replicate spots.
